Changes are numbered by the printed parent chain.
B1: anti-mutCALR antibody clone 1 (antibody, human IgG1, lambda, V domains shown)
VH: EVQLVQSGAEVKKPGASVKVSCKVSGYTLTELSMQWVRQAPGKGLEWMGGFDPDDGETMYAEKFQGRLTVTEDTSTDTVYMELRSLTSEDTALYFCATSPGYDFFDYWGQGTLVTVSS
VL: SYVLTQPPSVSVAPGKTARITCGGNYIGSKSVHWYQQKPGQAPVLVVYDDGDRPSGIPARFSGSNSGNTATLTISRVEAGDEADYYCQVWDSISDHVVFGGGTKLTVLG
notes: human IgG1
B2: anti-mutCALR antibody clone 5 (antibody, human IgG1, lambda, V domains shown)
VH: B1 VH
VL: SYVLTQPPSVSVAPGQTASITCVGTNFGSKNVHWYQQRPGQAPVLVVYDDSDRPSGIPERFSGSNSGNTATLTISRVEAGDEADYYCQVWDSSSDHLIFGGGTKLTVLG
notes: human IgG1
B3: anti-mutCALR antibody clone 3 (antibody, human IgG1, lambda, V domains shown)
VH: B1 VH with K63R
VL: B2 VL with S19R, V23G, T25N, F27I, N31S, R38K, S75N, S94N, H96L
notes: human IgG1
B4: anti-mutCALR antibody clone 4 (antibody, human IgG1, lambda, V domains shown)
VH: B1 VH
VL: B2 VL with S19R, V23G, T25N, F27I, N31S, R38K, S75N, S94N, H96L
notes: human IgG1
B5: anti-mutCALR antibody clone 2 (antibody, human IgG1, lambda, V domains shown)
VH: B1 VH
VL: B1 VL with V3E, N25D, Y26N, G51S, A59E, I93S, S94I, V97L, V98I, L105V
notes: human IgG1
B6: anti-mutCALR antibody clone 44 (antibody, human IgG1, lambda, V domains shown)
VH: EVQLVQSGAEVKKPGSSVKVSCKASGGTFSSYAISWVRQAPGQGLEWMGGIIPIFGTANYAQKFQGRVTITADESTSTAYMELSSLRSEDTAVYYCASSPLRGSGWYWHYYYGMDVWGQGTTVTVSS
VL: SYVLTQPPSVSAAPGKTARISCGGNNIRSKSVHWYQQKAGQAPVLVIYQDSKRPSGIPERFSGSNSGNTATLTISGTQAMDEADYYCQAWDSNTVVFGGGTKLTVLG
B7: anti-mutCALR antibody clone 47 (antibody, human IgG1, lambda, V domains shown)
VH: B6 VH
VL: SYELTQPPSVSVAPGKTARITCGGNKIGTKSVHWYQQKPGQAPVLVIYRDSNRPSGIPERFSGSNSGNTATLTISRAQAGDEADYYCQVWDSSTVVFGGGTKLTVLG
B8: anti-mutCALR antibody clone 46 (antibody, human IgG1, lambda, V domains shown)
VH: B6 VH with E1Q
VL: B6 VL with V3E, A12V, S21T, A39P, I47V, A89V, N93S, V95A
B9: anti-mutCALR antibody clone 40 (antibody, human IgG1, lambda, V domains shown)
VH: EVQLVQSGAEVKKPGASVKVSCKVSGYTLTESSMHWVRQAPGKGLEWMGLVDPEDGETIYAQKFQGRVTMTEDTSTDTAYMELSSLRSEDTAVYYCAREEWSGDGDDAFDIWGQGTMVTVSS
VL: QSVLTQPPSVSAAPGQKVTISCSGSSSNIGSYSVSWYQQLPGTAPKLLIYDNNKRPSGIPDRFSGSNSGTSATLGITGLQTGDEADYYCGTWDSSLSAWVFGGGTKLTVLG
notes: human IgG1
B10: anti-mutCALR antibody clone 53 (antibody, human IgG1, lambda, V domains shown)
VH: QVQLVQSGAEVKKPGASVKVSCKVSGYTLTELSMHWVRQAPGKGLEWMGGFDPEDGETIYAQKFQGRVTMTEDTSTDTAYMELSSLRSEDTAVYYCATDIQGLAEFDYWGQGTLVTVSS
VL: QSALTQPRSVSGSPGQSVTISCTGTNTDVGAYIDVSWYQQHPGKAPKLIIYDVSKWPSGVPDRFSGSKSGNTASLTISGLQAEDEADYYCCSYAGNHSFSFGGGTKVTVLG
notes: human IgG1
B11: anti-mutCALR antibody clone 32 (antibody, human IgG1, lambda, V domains shown)
VH: QVQLVQSGAEVKKPGATVKISCKVSGYSFTDYFIHWVQQAPGKGLAWVGLVDPEDGETIYAEKFQGRVTITADTSTDTAYMELSSLRSEDTAVYYCATPGGILTDPDAFDIWGQGTMVTVSS
VL: QSALTQPASVSGSPGQSITISCTGTSSDVGGYNYVSWYQQHPGKAPKLMIYEVSNRPSGVSNRFSGSKSGNTASLTISGLQAEDEADYYCSSYTSSSTPYVFGTGTKVTVLG
notes: human IgG1
B12: anti-mutCALR antibody clone 33 (antibody, human IgG1, lambda, V domains shown)
VH: B11 VH
VL: QSALTQPRSVSGSPGQSVTISCAGTGSDVGGYNHVSWYQHHPGKAPKLMIYDVNKRPSGVPDRFSGSKSGNTASLTISGLQAEDEADYYCSSYIPSSTRWVFGGGTKLTVLG
notes: human IgG1
B13: anti-mutCALR antibody clone 34 (antibody, human IgG1, lambda, V domains shown)
VH: B11 VH
VL: QSALTQPASVSGSPGQSITISCTGTSSDVGGYNYVSWYQQHPGKAPKLMIYEVSNRPSGVSNRFSGSKSGNTASLTISGLQAEDEADYYCSSYTSSSTYVFGTGTKVTVLG
notes: human IgG1
B14: anti-mutCALR antibody clone 36 (antibody, human IgG1, lambda, V domains shown)
VH: B11 VH
VL: B12 VL with H34Y, I94T, P95S, R99F, W100Y, G104T, L108V
notes: human IgG1
B15: anti-mutCALR antibody clone 15 (antibody, human IgG1, lambda)
heavy: not shown
light: SYELTQPPSVSVAPGKTARITCGGDNIGSKSVHWYQQKPGQAPVLVVYDDSDRPSGIPERFSGSNSGNTATLTINRVEAGDEADYYCQVWDSSNDLLIFGGGTKLTVLGQPKAAPSVTLFPPSSEELQANKATLVCLISDFYPGAVTVAWKADSSPVKAGVETTTPSKQSNNKYAASSYLSLTPEQWKSHRSYSCQVTHEGSTVEKTVAPTECS
notes: human IgG1
B16: anti-mutCALR antibody clone 17 (antibody, human IgG1, lambda)
heavy: not shown
light: SYVLTQPPSVSVAPGQTARITCGGSDIGDEIVHWYQQKPGQAPVLVVYDDSDRPSGIPERFSGSNSGNTATLTISRAQAGDEADYYCQVWDSSSDHLIFGGGTKLTVLGQPKAAPSVTLFPPSSEELQANKATLVCLISDFYPGAVTVAWKADSSPVKAGVETTTPSKQSNNKYAASSYLSLTPEQWKSHRSYSCQVTHEGSTVEKTVAPTECS
notes: human IgG1
B17: anti-mutCALR antibody clone 52 (antibody, human IgG1, kappa, V domains shown)
VH: EVQLVQSGAEVKKPGASVKVSCKVSGYTLTELSMHWVRQAPGKGLEWMGLVDPEDGETIYAEKFQGRVTITADTSTDTAYMELSSPRSEDTAVYYCATTIGDDYFDYWGQGTLVTVSS
VL: not shown
notes: human IgG1
B18: anti-mutCALR antibody clone 51 (antibody, human IgG1, lambda, V domains shown)
VH: B6 VH
VL: B7 VL with R49Q, N52K, R76G, A77T, G80M, V89A, D91G
notes: human IgG1
B19: anti-mutCALR antibody clone 6 (antibody, human IgG1, lambda)
heavy: not shown
light: QSALTQPASVSGSPGQSITISCTGTSSDVGGYNYVSWYQQHPGKAPKLMIYEVSNRPSGVSNRFSGSNSGNTATLTINRVEAGDEADYYCQVWDSSNDLLIFGGGTKLTVLGQPKAAPSVTLFPPSSEELQANKATLVCLISDFYPGAVTVAWKADSSPVKAGVETTTPSKQSNNKYAASSYLSLTPEQWKSHRSYSCQVTHEGSTVEKTVAPTECS
notes: human IgG1

Molecular target: T1, human Type 1 mutCALR on Ba/F3 cells expressing MPL and Type 1 mutCALR (human)
T1 chain: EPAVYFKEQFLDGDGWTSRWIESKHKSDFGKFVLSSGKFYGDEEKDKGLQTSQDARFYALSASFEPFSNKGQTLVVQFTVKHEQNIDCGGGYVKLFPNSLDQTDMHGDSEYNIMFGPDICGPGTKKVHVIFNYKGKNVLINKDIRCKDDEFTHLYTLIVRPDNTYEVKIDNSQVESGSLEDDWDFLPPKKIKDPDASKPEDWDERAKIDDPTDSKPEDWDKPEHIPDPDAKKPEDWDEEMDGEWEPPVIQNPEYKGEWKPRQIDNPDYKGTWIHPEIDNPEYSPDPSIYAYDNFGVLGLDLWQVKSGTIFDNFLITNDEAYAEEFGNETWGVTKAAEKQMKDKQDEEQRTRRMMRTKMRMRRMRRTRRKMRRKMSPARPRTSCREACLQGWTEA
Experiment: cell-based or functional assay

Binder	IC50, inhibition of pSTAT5 [µg/mL]
B1	0.47
B2	0.03
B3	0.021
B4	0.04
B5	0.12
B6	7
B7	10
B8	3.9

Molecular target: T2, Recombinant MBP-mutCALR Type 1 fusion protein (human)
T2 construct: custom made at Cepter; also called recombinant mutCALR protein
Experiment: SPR, IgG captured, 1:1 fit, Exp. 1
Method: Experiment 1: Recombinant MBP-mutCALR Type 1 fusion protein was custom made at Cepter (cepterbiopartners.com). Data for the interaction of antibodies with recombinant MBP-mutCALR Type 1 fusion protein were collected at 25° C. on a Biacore 8K instrument (Cytiva, Marlborough, Mass.), and all reagents were obtained from Cytiva unless otherwise specified. The experiments were conducted using Tris-buffered saline (pH 7.2), 0.005% Surfactant P20, 1 mM CaCl₂) as running buffer. To prepare the capture surfaces, anti-human IgG (Fc) antibodies (Product #29234600) was amine-coupled onto a CM4 chip (Product #BR100534) under standard conditions using an Amine Coupling Kit (Product #BR100050). […] The kinetics parameters were obtained by applying 1:1 binding model to fit the data from multiple-cycle injection experiments using Biacore Insight Evaluation software.

Binder	Kd [nM]	koff [s⁻¹]	kon [M⁻¹ s⁻¹]
B9	1.04	0.00538	5.17e+06
B10	10.2	0.00235	229000
B11	5.63	0.00768	1.36e+06
B12	16.2	0.0126	775000
B13	2.56	0.00581	2.27e+06
B14	2.95	0.00205	695000
B15	6.03	0.215	3.57e+07
B16	2.22	0.00347	1.56e+06
B17	1.76	–	–
B18	4.64	0.00109	235000
B19	2.57	0.00153	597000

Molecular target: T2, Recombinant MBP-mutCALR Type 1 fusion …
Experiment: SPR, IgG captured, 1:1 fit, Exp. 2
Outline: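 Antibodies captured via amine-coupled anti-human IgG (Fc) on a CM4 chip; recombinant MBP-mutCALR Type 1 fusion protein as analyte. Run at 25 °C in Tris-buffered saline pH 7.2, 0.005% P20, 1 mM CaCl₂. Multiple-cycle kinetics fitted to a 1:1 binding model.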

Binder	Kd [nM]	koff [s⁻¹]	kon [M⁻¹ s⁻¹]
B9	0.352	0.00121	3.44e+06
B10	17	0.108	6.36e+06
B11	1.71	0.00314	1.84e+06
B14	1.22	0.00166	1.36e+06
B15	1.02	0.00249	2.44e+06
B16	0.249	0.00127	5.12e+06
B18	0.823	0.000524	636000
B19	0.538	0.00123	2.29e+06

Molecular target: T3, human mutCALR on BaF3 cells stably expressing human MPL and human mutCALR (MPL-mutCALR cells) (human)
T3 construct: also called mutant calreticulin
T3 chain: T1 chain
Experiment: flow cytometry, BaF3 MPL-mutCALR cells
Method: On the day of the assay, cells were washed and resuspended in assay buffer. Approximately 200,000 cells/well were added to 96-well plates and stained with the indicated concentration of antibodies for 30 minutes on ice. Cells were then washed and stained with goat anti-human secondary conjugated to R-phycoerythrin (R-PE) (Jackson Immuno Research Laboratories) for 30 minutes on ice. The cells were then washed and analyzed by flow cytometry.

Binder	EC50 [µg/mL]	MPL-mutCALR AUC
B1	0.01	52800
B2	0.09	57100
B3	–	102000
B4	–	74000
B5	0.01	60400

Reference: patent publication US20230272055A1 (Incyte, published 2023)
